Test results as given in patent US20250340655A1, “EPHA2-TARGETING ANTIBODIES AND THEIR APPLICATIONS IN CANCER TREATMENT” (TAIPEI MEDICAL UNIVERSITY, priority 2022, published 2025).
Square brackets hold non-standard residues; d marks the D form. Peptide text beside a SMILES is read from it. * marks the point of attachment. Dolaproine = CO[C@@H]([C@@H]1CCCN1)[C@@H](C)C(=O)O; Dil = CC[C@H](C)[C@H](NC)[C@@H](CC(=O)O)OC; X1 = C[C@@H](N*)[C@@H](O)c1ccccc1; NMeV = CN[C@H](C(=O)O)C(C)C

How the values were obtained:
hTERT HPNE = assay: Growth inhibitory response to serially diluted MMAE, normal pancreatic cell line; type: cell-based; conditions: serially diluted MMAE (FIG. 10)
[1] = Int J Mol Sci. 21 (9): 3286 (2020); cited from earlier work
[2] = system: other Eph family proteins (EphA1-A8); assay: Flow cytometry binding specificity on 293T cells overexpressing EphA molecules: other family proteins; conditions: cells overexpressing EphA1-A8 (FIG. 6A)
Procedure: (§1) To detect the binding specificity of scFv, 293T cells were transformed with EphA1-A8 plasmids individually for overexpression of different EphA molecules. The cell line was freshly prepared and washed with FACS buffer (2% FBS in PBS). The cells were seeded at 1×10^5 cells/well into a 96-well Ubottom plate and incubated with scFv for 1 h at 4° C. After the plate was washed with FACS buffer, the anti-hemagglutinin (HA) antibody was added for scFv binding detection (scFv was fused with a HA tag) and subsequently developed using an FITC-conjugated secondary antibody. Finally, the cell binding signal was analyzed using a FACS can flow cytometer.

[3] = system: BxPc-3 and Mia PaCa-2 cells; assay: Molecule signaling by Western blotting; type: cell-based, human
Procedure: […] The cells were collected and lysed using lysis buffer [50 mM Tris-HCl (pH 7.5), 50 mM NaCl, 5 mM ethylenediaminetetraacetic acid, and 1% Triton X-100], and a mixture of proteinase inhibitors (Roche Applied Science) was added. The protein concentration of the cell lysate was measured through the Coomassie Plus (Bradford) Protein Assay (Thermo Fisher Scientific). Samples were run on reducing SDS-PAGE for Western blotting analysis and were detected using antibodies against p-EphA2, EphA2, p-AKT, AKT, p-ERK, ERK, p-FAK, FAK, pSTAT3, STAT3 (Cell Signaling Technology), and β-actin (GeneTex).

HuCCT1, ssp-25, RBE, TFK = assay: MTS growth inhibition, cholagiocarcinoma cells; type: cell-based; design: dose or concentration left out as unconfirmed; conditions: four cell lines HuCCT1, ssp-25, RBE, Day 5
Procedure: The growth inhibitory effect of hSD5 scFv on the four strains of cholagiocarcinoma cells was tested under different concentrations. At indicated concentrations, hSD5 scFv interacted with the cancer cells for 5 days, and the effects on the growth of cancer cells were observed by MTS assay. (FIG. 17C)

EphA2 [4] = target: T1, EphA2 (Homo sapiens, UniProt P29317); assay: Flow cytometry binding specificity on 293T cells overexpressing EphA molecules: EphA2; design: expressed in transfected cells; host or cells: 293T; conditions: flow cytometry (FIG. 6A)
Procedure: as §1

EphA2 [5] = target: T1, EphA2; assay: Western blotting under reducing (SDS-PAGE) and non-reducing (Native-PAGE) conditions; type: binding; conditions: Native-PAGE vs SDS-PAGE (FIG. 3D)
Procedure: The recombinant EphA2 protein was transferred onto nitrocellulose membranes (GE Healthcare Life Sciences) after electrophoresis using sodium dodecyl sulfate-polyacrylamide gel (SDS-PAGE) or nativepolyacrylamide gel (Native-PAGE), and the membranes were incubated with using purified scFv antibodies to determine binding reactivity. The membranes were blocked with 5% skim milk and then incubated with scFv at room temperature for 1 h. After washing with PBST, the membranes were detected and developed using HRP-conjugated goat anti-chicken light chain antibodies. Finally, the 3,3′-diaminobenzidine substrate was added for color development until the desired color intensity was reached.

[6] = target: T2, endogenous EphA2 molecules on 4 pancreatic cancer cell lines (AsPc-1, BxPc-3, Panc-1, Mia PaCa-2) (Homo sapiens, UniProt P29317); assay: Flow cytometry binding on pancreatic cancer cells; conditions: 4 PAAD cell lines (FIG. 3E)
T2 construct: with endogenous EphA2 molecule expression; endogenous in cells; host or cells: AsPc-1, BxPc-3, Panc-1, Mia PaCa-2
Procedure: Four PAAD cells AsPc-1, BxPc-3, Panc-1, and Mia PaCa-2 with endogenous EphA2 molecule expression, were analyzed through flow cytometry to determine the binding reactivity of indicated scFvs. Freshly prepared cancer cells were harvested and washed twice with PBS. Then, individual scFv was added and incubated at room temperature for 1 h. Bound scFv was visualized using goat anti-chicken light chain antibodies and donkey anti-goat antibodies conjugated with fluorescein isothiocyanate (FITC; Jackson ImmunoResearch Laboratories). An irrelevant scFv was used as the negative control, and commercially available goat anti-EphA2 antibodies were used as the positive control (R&D Systems) in the assay. The results were analyzed using a FACS can flow cytometer (BD Biosciences, Systems and Reagents).

[7] = target: T3, natural EphA2 molecule in the lysate of 4 pancreatic cancer cell lines (Homo sapiens, UniProt P29317); assay: Immunoprecipitation (pull down) from PAAD cell lysates; type: binding; conditions: lysates of four PAAD cell lines (FIG. 3F)
T3 construct: with endogenous EphA2 molecule expression; endogenous in cells; host or cells: AsPc-1, BxPc-3, Panc-1, Mia PaCa-2
Procedure: For the immunoprecipitation assay, 300 μg of each PAAD cell lysate was incubated with 50 μg of antiEphA2 scFv (scFv was fused with a His tag) at 4° C. overnight. On the next day, 30 μL of Ni^2+-charged sepharose was added to the mixture and incubated for 1 h at 4° C. After three rounds of washing with NiNTA wash buffer (50 mM NaH2PO4, 300 mM NaCl, and 10 mM imidazole, pH 8.0), the scFv-bound sepharose beads were resuspended in 50 μL of PBS buffer. Subsequently, the sepharose solution was denatured at 95° C. for 10 min and analyzed using SDS-PAGE. After the proteins were transferred to a polyvinylidene fluoride membrane, the membrane was detected using the anti-EphA2 antibody (R&D Systems) and anti-His (Proteintech Group) antibody at 4° C. overnight. On the next day, after washing with PBST, the membrane was incubated with HRP-conjugated secondary antibody (Jackson ImmunoResearch Laboratories). Finally, the chemiluminescence substrate was added for luminal signal detection.

AsPc-1 = assay: MTS cell proliferation assay, AsPc-1; type: cell-based, human; design: dose or concentration left out as unconfirmed; conditions: AsPc-1, MTS, Day 5, scFv
Procedure: (§2) PAAD cell proliferation was measured using a 3-(4,5-dimethylthiazol-2-yl)-5-(3-carboxymethoxyphenyl)-2-(4-sulfophenyl)-2H-tetrazolium (MTS) Cell Proliferation Assay Kit (Promega). The cells were seeded in a 96-well culture plate at a density of 5000 cells/well for attachment. Then, scFv at various concentrations was added to the cell culture and incubated for 5 days. Finally, MTS and phenazine methosulfate solutions were added and incubated for 90 min for development. After the SDS reagent was added to stop the reaction, the absorbance of each well was measured by determining the OD at 490 nm.

BxPc-3 [8] = assay: MTS cell proliferation assay, BxPc-3; type: cell-based, human; design: dose or concentration left out as unconfirmed; conditions: BxPc-3, MTS, Day 5, scFv
Procedure: as §2

Panc-1 [9] = assay: MTS cell proliferation assay, Panc-1; type: cell-based, human; design: dose or concentration left out as unconfirmed; conditions: Panc-1, MTS, Day 5, scFv
Procedure: as §2

Mia PaCa-2 [10] = assay: MTS cell proliferation assay, Mia PaCa-2; type: cell-based, human; design: dose or concentration left out as unconfirmed; conditions: Mia PaCa-2, MTS, Day 5, scFv
Procedure: as §2

BxPc-3 and Mia PaCa-2 [11] = assay: Transwell migration assay (FIG. 5A); type: cell-based, human; design: dose or concentration left out as unconfirmed; conditions: scFv for 2 days
Procedure: (§3) PAAD cells were seeded at 5×10^4 cells/well in a 24-well Transwell cell migration plate (Corning) and incubated with scFv for 2 days. In the assay, recombinant ephrin-A1 (Sino Biological) was added as a positive control. After scFv treatment, the cells were fixed with frozen 100% methanol for 10 min and stained with 0.01% crystal violet for 1 h at room temperature. After the pate was washed with ddH2O, the upper-layer cells were removed using cotton swabs. Cell staining was imaged using a microscope and analyzed using ImageJ. For the scratch wound healing assay, PAAD cells were seeded in a 6-well culture plate. The seeded cells in the well were scratched with a pipette tip to simulate a wound. After treatment with scFv and incubation for 36 or 72 h, the cells were imaged using a microscope. The wound areas were analyzed using ImageJ.

Panc-1 [12] = assay: Transwell migration assay, Panc-1; type: cell-based, human; conditions: Panc-1, transwell migration assay (FIG. 5B)
Procedure: as §3

BxPc-3 [13] = assay: Transwell migration assay, BxPc-3; type: cell-based, human; conditions: BxPc-3, transwell migration assay (FIG. 5B)
Procedure: as §3

BxPc-3 and Mia PaCa-2 [14] = assay: Scratch wound healing assay (FIG. 5C); type: cell-based, human; conditions: after 36 and 72 h of treatment with scFv
Procedure: as §3
(§4) For the scratch wound healing assay, PAAD cells were seeded in a 6-well culture plate. The seeded cells in the well were scratched with a pipette tip to simulate a wound. After treatment with scFv and incubation for 36 or 72 h, the cells were imaged using a microscope. The wound areas were analyzed using ImageJ.

Mia PaCa-2 [15] = assay: Scratch wound healing assay, Mia PaCa-2; type: cell-based, human; conditions: Mia PaCa-2, wound healing assay (FIG. 5D)
Procedure: as §3, §4

BxPc-3 [16] = assay: Scratch wound healing assay, BxPc-3; type: cell-based, human; conditions: BxPc-3, wound healing assay (FIG. 5D)
Procedure: as §3, §4

T1 sequence (P29317 24-976): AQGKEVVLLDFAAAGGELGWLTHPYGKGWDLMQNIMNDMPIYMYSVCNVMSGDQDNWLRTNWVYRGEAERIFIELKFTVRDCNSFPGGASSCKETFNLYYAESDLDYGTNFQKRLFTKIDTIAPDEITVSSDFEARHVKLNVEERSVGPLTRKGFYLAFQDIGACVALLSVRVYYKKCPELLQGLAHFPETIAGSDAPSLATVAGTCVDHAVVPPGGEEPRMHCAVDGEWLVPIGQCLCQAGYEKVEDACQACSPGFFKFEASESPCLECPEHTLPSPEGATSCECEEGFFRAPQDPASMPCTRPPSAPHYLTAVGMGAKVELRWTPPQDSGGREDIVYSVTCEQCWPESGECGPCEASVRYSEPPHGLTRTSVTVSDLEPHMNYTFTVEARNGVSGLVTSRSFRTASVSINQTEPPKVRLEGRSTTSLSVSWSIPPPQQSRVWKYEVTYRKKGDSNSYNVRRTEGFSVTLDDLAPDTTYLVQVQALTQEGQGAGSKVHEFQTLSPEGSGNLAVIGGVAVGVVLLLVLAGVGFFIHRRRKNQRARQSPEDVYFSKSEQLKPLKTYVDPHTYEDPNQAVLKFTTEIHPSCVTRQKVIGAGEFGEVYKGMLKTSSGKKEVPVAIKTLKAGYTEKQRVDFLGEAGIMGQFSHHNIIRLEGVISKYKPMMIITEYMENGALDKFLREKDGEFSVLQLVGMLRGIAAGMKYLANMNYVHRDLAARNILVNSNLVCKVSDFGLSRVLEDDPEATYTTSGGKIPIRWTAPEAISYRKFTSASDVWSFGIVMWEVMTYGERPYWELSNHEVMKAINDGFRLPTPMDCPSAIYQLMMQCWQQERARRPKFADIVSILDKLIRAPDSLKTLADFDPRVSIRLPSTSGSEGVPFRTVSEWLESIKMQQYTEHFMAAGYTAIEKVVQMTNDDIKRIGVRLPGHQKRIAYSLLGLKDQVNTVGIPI
T3 sequence (P29317 24-976): as above
T2 sequence (P29317 24-976): as above

CC[C@H](C)[C@@H]([C@@H](CC(=O)N1CCC[C@H]1[C@H](OC)[C@@H](C)C(=O)N[C@H](C)[C@@H](O)c1ccccc1)OC)N(C)C(=O)[C@@H](NC(=O)[C@@H](NC)C(C)C)C(C)C [MMAE, Monomethyl auristatin E] (H-[NMeV]V[Dil][Dolaproine]-X1)
growth inhibition of normal pancreatic cell line (hTERT HPNE): only mild effect
potency relative to doxorubicin [1]: 100-1000 times

B1: scFv hSD5: humanized anti-EphA2 scFv, SEQ ID NO: 12 (light chain SEQ ID NO: 8, heavy chain SEQ ID NO: 10) (protein)
scFv: LTQPPSVSVSPGQTVRITCSGSSGSYGWYQQKSPGQAPVTLIYDNDKRPSGIPERFSGSSSGSTSTLTISGVQAEDEADYYCGSADSSTYVGMFGGGTKLTVLGQSSRSSQVQLVESGGGLVQPGGSLRLSCAASGFTFSDYGMGWVRQAPGKGLEWVAGISAAGSFTPYGAAVKGRFTISRDNSKNTVYLQMNSLRAEDTAVYYCARIPSGYRAGEIYTWGQGTLVTVSS
cross-binding to other Eph family proteins [2]: does not exhibit cross-binding reactions
LAMP1 and LAMP2 levels ([3]; 6 h after administration of scFv (FIG. 6C)): upregulated levels
EphA2 degradation ([3]; 6 h after administration of scFv, dose-dependent (FIG. 6C)): degraded EphA2 molecules
EphA2 level ([3]; 24 hours treatment (FIG. 6D)): almost completely degraded
amount of pEphA2 ([3]; 24 hours treatment (FIG. 6D)): decreased
pSTAT3 and pFAK signals ([3]; 24 hours treatment (FIG. 6D)): dose-dependent decrease
growth inhibition (HuCCT1, ssp-25, RBE, TFK): 40%-70%
binding to cells overexpressing EphA2 (EphA2 [4]): specifically binds to EphA2 molecules

B2: scFv SD5: chicken derived anti-EphA2 scFv, SEQ ID NO: 11 (light chain SEQ ID NO: 7, heavy chain SEQ ID NO: 9) (protein)
scFv: LTQPSSVSANLGETVKIPCSGSSGSYGWYQQKSPGSAPVTLIYDNDKRPSDIPSRFFGSTSGSTSTLTITGVQAEDEAVYFCGSADSSTYVGMFGAGTTLTVLGQSSRSSTVTLDESGGGLQTPGGGLSLVCKASGFTFSDYGMGWVRQAPGKGLEFVAGISAAGSFTPYGAAVKGRATISRDNGQSTVRLQLNNLRSEDTGIYYCARIPSGYRAGEIYTWGQGTEVIVSS
recognition of EphA2 protein in native and denatured form (EphA2 [5]): can recognize EphA2 in the native form, but not in the denatured form
binding response to EphA2 molecules on cancer cells [6]: significant binding response
pull down of EphA2 from cell lysates [7]: captured free EphA2 molecules
growth inhibition (AsPc-1): approximately 80%
growth inhibition (BxPc-3 [8]): 58.5%
growth inhibition (Panc-1 [9]): approximately 80%
growth inhibition (Mia PaCa-2 [10]): approximately 80%
number of migrated cancer cells (BxPc-3 and Mia PaCa-2 [11]): reduced effectively
migration inhibition (Panc-1 [12]): 65%
migration inhibition (BxPc-3 [13]): 91%
migration of cancer cells in wound healing assay (BxPc-3 and Mia PaCa-2 [14]): inhibited the migration of cancer cells
migration inhibitory effect (Mia PaCa-2 [15]): 65%
migration inhibitory effect (BxPc-3 [16]): 67%
